Experimental data: the supplement of paper PMC9732359
± gives the uncertainty stated by the source.

Assay: protein stability index of a GFP-peptide fusion (yeast GPS) (PSI 1-4); higher = more stable; sorted into four equal gates, so the index is relative within each strain
In short: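 The protein stability index combines read frequencies across sorting gates, each weighted by its gate number and then summed. To obtain those frequencies, a pooled yeast library of GFP fusions to tiled 17-residue yeast protein peptides, on a plasmid also expressing Cherry, was grown to mid-log phase in leucine-free medium. The cells were sorted into four equal gates by GFP/Cherry ratio before plasmid amplification by PCR and Illumina sequencing.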

Row | Sequence | protein stability index (doa10∆) | protein stability index (pdr5∆) | protein stability index (san1∆) | protein stability index (ubr1∆)
1 | CFDSTTGRDAGFGILED [RRP40] | 3.33 ± 0.13 | 3.24 ± 0.13 | 3.47 ± 0.12 | 3.41 ± 0.074
2 | CFKPMSLTSKRLISQSL [RIP1] | 2.64 ± 0.24 | 2.42 ± 0.16 |  | 2.1 ± 0.049
3 | CFSINDDPVPTPPAIEH [SSN2] | 2.42 ± 0.25 | 2.1 ± 0.26 |  | 
4 | CIIAVSCTLLERGHPKD [POP1] | 1.46 ± 0.022 | 1.52 ± 0.029 | 1.81 ± 0.036 | 1.96 ± 0.027
5 | CISLGSTKLSRPFDSFG [ITC1] | 3.06 ± 0.067 | 2.93 ± 0.061 | 3.03 ± 0.048 | 3.01 ± 0.08
6 | CITLDQLAVRAPKGQNT [RPL18A] |  | 3.39 ± 0.2 | 2.94 ± 0.079 | 3.38 ± 0.095
7 | CKIDFQKNFMDQFQWIL [RRI2] |  | 1.47 ± 0.092 | 1.55 ± 0.24 | 1.93 ± 0.13
8 | CKNFEKTQLGSTMTEPV [GAL11] | 2.81 ± 0.05 | 2.84 ± 0.065 | 2.58 ± 0.054 | 2.84 ± 0.039
9 | CRVCSSHTGLVRKYDLN [RPS29B] | 2.56 ± 0.058 | 2.33 ± 0.059 | 2.38 ± 0.079 | 1.94 ± 0.047
10 | CSDFVKILNLEKPLILA [NUT1] | 2.01 ± 0.097 | 1.39 ± 0.064 | 1.34 ± 0.17 | 1.08 ± 0.071
11 | CSHIFTSDQKNKRTQFS [RPB9] | 2.52 ± 0.058 | 2.72 ± 0.052 | 2.47 ± 0.068 | 2.53 ± 0.043
12 | CVEWRLPEIAKEIYTTL [YJR042W/NUP85] | 1.4 ± 0.075 | 1.46 ± 0.071 | 1.52 ± 0.11 | 1.8 ± 0.066
13 | CVKLTVRSLLEVVQTGA [PRE6] | 2.44 ± 0.3 |  |  | 2.27 ± 0.29
14 | DALRRGMLAMASLHSKE [MED4] | 1.87 ± 0.15 | 2.23 ± 0.15 | 2.24 ± 0.17 | 2.05 ± 0.17
15 | DAPFNKVVLKALFLSKI [RPL18A] | 1.55 ± 0.1 | 1.56 ± 0.074 | 1.25 ± 0.13 | 1.32 ± 0.067
16 | DARGVIGVIAGGGRVDK [RPL2A] | 3.18 ± 0.093 | 3.11 ± 0.11 | 3.06 ± 0.11 | 2.86 ± 0.071
17 | DASPAPSNESCSPWSLQ [SRB5] | 2.72 ± 0.071 | 2.43 ± 0.052 | 2.86 ± 0.046 | 2.33 ± 0.033
18 | DASPDSLEALIDLCHDF [YCS4] | 2.81 ± 0.055 | 2.9 ± 0.047 | 2.86 ± 0.054 | 2.86 ± 0.041
19 | DAVLKIFSFHQDSIFQR [SRB8] | 3.12 ± 0.11 | 2.79 ± 0.12 | 3.04 ± 0.077 | 2.77 ± 0.057
20 | DDDDDEDEEEEEEVTDQ [QCR6] | 3.02 ± 0.061 | 3.73 ± 0.22 | 3.4 ± 0.047 | 3.4 ± 0.12
21 | DDEPTTPAELVGKFLGY [FAS1] | 3.51 ± 0.13 | 3.34 ± 0.14 | 3.16 ± 0.08 | 3.2 ± 0.12
22 | DDFEEDEDEEDDDDYNA [RPC31] |  | 3.31 ± 0.12 | 3.2 ± 0.09 | 3.46 ± 0.29
23 | DDFTDAIQFVKENELLF [YCS4] | 2.1 ± 0.082 | 2.04 ± 0.061 | 2.58 ± 0.16 | 1.92 ± 0.07
24 | DDLQKFNGIENQSAYEW [ISW2] | 3.2 ± 0.21 | 3.23 ± 0.21 | 3.29 ± 0.1 | 3.32 ± 0.14
25 | DDNEMTRDDLLTILMRS [RRI2] | 2.44 ± 0.2 | 2.66 ± 0.19 |  | 
26 | DDNNNNNNNNNNNNSTR [GRR1] | 2.95 ± 0.045 | 3.02 ± 0.042 | 2.95 ± 0.041 | 3.03 ± 0.054
27 | DDRVDKKFVSQIQKNVD [POP3] | 3.22 ± 0.073 | 3.44 ± 0.12 | 3.29 ± 0.064 | 3.44 ± 0.051

Row | Sequence | protein stability index (doa10∆) | protein stability index (pdr5∆) | protein stability index (san1∆) | protein stability index (ubr1∆)
28 | DDYDYVMYGTAYKFEEV [RPB8] | 2.55 ± 0.041 | 2.89 ± 0.048 | 2.95 ± 0.055 | 2.72 ± 0.051
29 | DDYSNLKREERQGLIHQ [SMC3] | 2.21 ± 0.2 | 2.6 ± 0.1 | 1.96 ± 0.21 | 2.7 ± 0.11
30 | DEDLLDTQTFSVLLQQL [YGL172W/NUP49] | 2.93 ± 0.059 | 2.81 ± 0.063 | 1.72 ± 0.11 | 2.57 ± 0.045
31 | DEELVSHFVSAVSTIAS [RPP0] | 3.73 ± 0.21 | 3.12 ± 0.28 | 2.76 ± 0.18 | 2.03 ± 0.2
32 | DEFIKTHEDLPKEVDGL [IRR1] | 3.2 ± 0.081 | 3.29 ± 0.094 | 3.04 ± 0.078 | 3.21 ± 0.067
33 | DEFKDITKEVTQVNILK [YIL149C/MLP2] | 3.14 ± 0.082 | 3.2 ± 0.075 | 2.67 ± 0.14 | 3.3 ± 0.057
34 | DEGGAKSLLLNTLNIDN [BRN1] | 3.19 ± 0.077 | 3.16 ± 0.097 | 3.1 ± 0.083 | 3.38 ± 0.075
35 | DEIKAQRKEIKDRISSC [SMC4] | 3 ± 0.062 | 3.03 ± 0.054 | 3.13 ± 0.061 | 3.07 ± 0.053
36 | DENGTNSAIANEQEEKS [RPC37] | 2.65 ± 0.083 | 2.83 ± 0.1 | 2.74 ± 0.047 | 3.07 ± 0.051
37 | DEQDDDNVNSTTGSIFE [BRN1] | 2.88 ± 0.16 | 2.92 ± 0.13 | 2.7 ± 0.15 | 2.85 ± 0.066
38 | DFDDFLKLGLVEYLDVN [RET1] | 3.01 ± 0.092 | 3.07 ± 0.1 | 3 ± 0.11 | 3.06 ± 0.1
39 | DFHFSTDRITRLFIKPG [BRN1] | 2.33 ± 0.058 | 2.6 ± 0.046 | 2.16 ± 0.089 | 2.67 ± 0.048
40 | DFITGSYLISHKDSFYD [RPO31] | 2.02 ± 0.066 | 1.94 ± 0.049 | 2.13 ± 0.064 | 1.83 ± 0.045
41 | DFKEVEDFLHFIVAEYI [SRB4] | 2.73 ± 0.071 | 3.22 ± 0.11 | 3.13 ± 0.056 | 3.14 ± 0.056
42 | DFKTDVDEPMTSAVELG [YJL039C/NUP192] | 2.17 ± 0.073 | 2.28 ± 0.068 | 2.54 ± 0.13 | 2.85 ± 0.06
43 | DFTLPEDFAPLLAEEEE [PRP8] | 3.42 ± 0.19 | 3.64 ± 0.22 | 3.23 ± 0.11 | 3.2 ± 0.084
44 | DFTQEDELRKQELISKA [ISW2] | 3.11 ± 0.12 | 3.1 ± 0.076 | 3.03 ± 0.083 | 3.09 ± 0.09
45 | DFYTRHHFTCEITGTSC [ITC1] | 1.43 ± 0.042 | 1.64 ± 0.045 | 1.51 ± 0.094 | 1.65 ± 0.045
46 | DGDASKPAFSFGAKPDE [YJL041W/NSP1] | 3.32 ± 0.058 | 3.25 ± 0.058 | 3.15 ± 0.036 | 3.42 ± 0.043
47 | DGHYIEENSQGNILDFN [REC8] | 3.23 ± 0.11 | 2.67 ± 0.098 | 2.89 ± 0.065 | 2.81 ± 0.1
48 | DHLIIEPEEEKSKREEE [ARP9] | 3.15 ± 0.27 |  |  | 3.2 ± 0.17
49 | DHNALPQRCTFAFEAID [POP1] | 2.36 ± 0.09 | 2.84 ± 0.077 | 2.79 ± 0.089 | 3.09 ± 0.057
50 | DIAGQRDDALVVETITS [RRP42] | 3.1 ± 0.11 | 3.28 ± 0.094 | 2.27 ± 0.27 | 2.56 ± 0.092
51 | DIDLETYSFIDNDRFNV [YML103C/NUP188] | 2.47 ± 0.064 | 2.54 ± 0.056 | 2.46 ± 0.081 | 2.21 ± 0.042
52 | DIEAGDDDDNNESSSNT [DIS3] | 3.51 ± 0.26 | 3.4 ± 0.2 | 3.05 ± 0.11 | 2.79 ± 0.12
53 | DIFVYLTYDKDLTNNPQ [MTR3] | 2.1 ± 0.05 | 1.98 ± 0.073 | 2.35 ± 0.1 | 2.28 ± 0.065
